Results as given in PMC5816610.

Experiments:
CRP (purified) = test: EMSA; conditions: 1x Transcription buffer (composition in cited ref 50), 37 C, 1 pmol DNA, 10 min then 30 min with protein; 5% PAGE in 1xTBE; purified CRP +/-200 uM cAMP …
[1] = target: sigma70-RNA polymerase holoenzyme (UniProt P0A7Z4+P0A8V2+P0A8T7+P0A800+P00579); test: EMSA; conditions: 1x Transcription buffer (composition in cited ref 50), 37 C, 1 pmol DNA, 10 min then 30 min with protein; 5% PAGE in 1xTBE; purified CRP +/-200 uM cAMP …

Substance	binding signal (fold vs no cAMP) (CRP (purified))	binding [1]
yihV/W intergenic region	1.3	–
ATTTAACGGCAGCAAGGCTATTCAGCAGTTCGTTCGGGTCAATACCGTCAGCGATCAGCATTTCGCGATATTGCTGCAGTTTACGAGTGCGCTCTTCAACTTC (double strand) [hns internal region without promoters]	–	no binding
yihU/V intergenic region	1.3	–
